According to paper PMC6510727:
“And” between values parts separate entries of the source, which are not always exact repeats. Equal entries are not always repeated.

Columns and labels:
[1] = molecular target: PDE catalytic subunit (PDEα or PDEβ) of frog rod PDE (frog (Rana catesbeiana)); test: PDE activity on dilution (pH assay), fitted with equation (s5); frog ROS membranes at various concentrations of PDE (≤40 nM; PDE/rhodopsin taken as 1/270), in the light without GTP, 5 mM cGMP, room temperature
[2] = molecular target: PDE catalytic subunit (PDEα or PDEβ) of frog rod PDE (frog (Rana catesbeiana)); test: PDE activity on dilution (pH assay), fitted with equation (s5); purified PDE at diluted low concentrations (≤40 nM), in the light without GTP, 5 mM cGMP, room temperature; relative to trypsin-treated full activity
[3] = molecular target: PDE catalytic subunit (PDEα or PDEβ) of frog rod PDE (frog (Rana catesbeiana)); test: co-purification (Mono Q, Superdex 200) with SDS-PAGE quantification; native PDE purified from frog ROS membranes to almost 100% purity; subunits quantified on Oriole-stained gels with bovine serum albumin as molar standard

Kd [1]: 0.04 to 0.06 nM and 0.054 nM
Kd [2]: 0.01 nM and 0.005 to 0.02 nM
molar ratio of 2PDEγ/PDEαβ [3]: 1.01
Substance: native PDEγ of frog rod PDE (freed reversibly from the catalytic subunit) (from UniProt H1AAN5 1-87) (natural protein)
